This note sets out measurements from article PMC3675491 (Nucleic Acids Research, 2013).

In data set [1] the target is T1, His6-σ^HrdB σ2 fragment (amino acids 211–347) (S. coelicolor, UniProt P18183 211-347).
T1 sequence: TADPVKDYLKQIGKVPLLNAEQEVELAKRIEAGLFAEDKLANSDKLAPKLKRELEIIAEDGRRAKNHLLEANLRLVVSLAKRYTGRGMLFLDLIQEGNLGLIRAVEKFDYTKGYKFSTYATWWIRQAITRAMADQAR
In words: […].

In data set [2] the target is T2, His6-σ^HrdB σ2–σ4 fragment (amino acids 211–511) (S. coelicolor, UniProt P18183 211-511).
T2 sequence: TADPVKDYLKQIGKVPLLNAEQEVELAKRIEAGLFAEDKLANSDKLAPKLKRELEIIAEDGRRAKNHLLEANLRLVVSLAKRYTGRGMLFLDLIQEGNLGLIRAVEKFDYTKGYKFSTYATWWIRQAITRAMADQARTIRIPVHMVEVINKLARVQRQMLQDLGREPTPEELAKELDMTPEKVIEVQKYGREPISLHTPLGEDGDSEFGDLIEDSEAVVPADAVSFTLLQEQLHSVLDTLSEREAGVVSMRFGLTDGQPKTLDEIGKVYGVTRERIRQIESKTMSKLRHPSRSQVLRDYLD
Kind of data set: […].

In data set [3] the target is T3, σ^HrdB (purified protein, 55.9 kDa) (S. coelicolor, UniProt P18183 1-511).
T3 sequence: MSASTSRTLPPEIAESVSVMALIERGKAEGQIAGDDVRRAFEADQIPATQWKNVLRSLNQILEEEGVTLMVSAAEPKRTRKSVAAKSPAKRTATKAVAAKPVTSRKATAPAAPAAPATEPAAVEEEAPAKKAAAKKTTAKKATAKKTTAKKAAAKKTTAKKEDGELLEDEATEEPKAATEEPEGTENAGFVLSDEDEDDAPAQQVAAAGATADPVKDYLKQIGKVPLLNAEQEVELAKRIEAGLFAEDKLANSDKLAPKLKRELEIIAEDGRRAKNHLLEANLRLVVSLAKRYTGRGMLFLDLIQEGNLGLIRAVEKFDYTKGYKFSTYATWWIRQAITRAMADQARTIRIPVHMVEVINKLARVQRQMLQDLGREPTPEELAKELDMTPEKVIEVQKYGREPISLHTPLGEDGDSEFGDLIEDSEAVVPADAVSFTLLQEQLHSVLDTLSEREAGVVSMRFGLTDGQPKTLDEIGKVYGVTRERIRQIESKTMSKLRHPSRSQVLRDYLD
In words: SEC.

The data set “SEC” concerns the molecule itself. Kind of data set: SEC. Background: Size exclusion chromatography separates by hydrodynamic size, large species first.

B1: RbpA^Sc (native, untagged purified protein, 14.1 kDa) (natural protein)
chain: MSERALRGTRLVVTSYETDRGIDLAPRQAVEYACEKGHRFEMPFSVEAEIPPEWECKVCGAQALLVDGDGPEEKKAKPARTHWDMLMERRTREELEEVLEERLAVLRSGAMNIAVHPRDSRKSA
As for B1, the binding result in data set [1], in data set [2] and in data set [3] was “binds” throughout. The stoichiometry N (as a rule, the number of molecules, sites or subunits per partner or assembly) in “SEC” came out at 2.
